Source: the supplement of paper PMC10899765

Tests used:
Conditions in all cases: 20 nM; 72 h
MCF10A [1] = assay: 5+ nucleoli phenotype percent effect (relative to siNT 0% and siKIF11 100%); higher = more cells with five or more nucleoli
Description: (§1)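 After 72 h, cells were fixed and stained with Hoechst and anti-fibrillarin, and nucleoli per nucleus were counted with CellProfiler. Values are plate-adjusted percent effect for the one-nucleolus and 5+ nucleoli phenotypes, normalised to siNT (0%) and to the positive controls siNOL11 or siKIF11 (100%), as the mean of biological triplicates. Percent viability is the nuclei count relative to siNT.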

MCF10A [2] = assay: one-nucleolus phenotype percent effect (relative to siNT 0% and siNOL11 100%); higher = more cells with one nucleolus (ribosome biogenesis inhibition)
Description: as §1

MCF10A [3] = assay: percent viability (nuclei count relative to siNT); higher = more viable cells
Description: as §1

Sequence	5+ nucleoli phenotype percent effect (MCF10A [1])	one-nucleolus phenotype percent effect (MCF10A [2])	percent viability (MCF10A [3])
UGGGGCGGAGCUUCCGGAG [hsa-miR-3180]	-11.7%	10.4%	25.6%
GCAGUUCUGAGCACAGUACAC [hsa-miR-4277]	31.2%	-25%	210%
AGAGGAUACCCUUUGUAUGUU [hsa-miR-1185-5p]	5.5%	2.36%	34.2%
UGUCGUGGGGCUUGCUGGCUUG [hsa-miR-4440]	-27.6%	2.65%	58.9%
CAGAAGGGGAGUUGGGAGCAGA [hsa-miR-3154]	-26.4%	46.1%	17.4%
CGGGACUGUAGAGGGCAUGAGC [hsa-miR-8052]	28.9%	4.6%	42.4%
AAAGUCUCGCUCUCUGCCCCUCA [hsa-miR-3184-3p]	41.1%	-19.6%	172%
AGGGGGAUGGCAGAGCAAAAUU [hsa-miR-5010-5p]	-7.77%	13.7%	44.2%
AAAGUGCUUCCCUUUGGACUGU [hsa-miR-520a-3p]	40.6%	-9.18%	60.8%
AGGUGUGUCUGUAGAGUCC [hsa-miR-3650]	-24.7%	45.8%	19.8%
CAAGCCUCUCCUGCCCUUCCAG [hsa-miR-7109-3p]	31.1%	-12.1%	51.1%
UGGGGCGGGGCAGGUCCCUGC [hsa-miR-6816-5p]	30.8%	-19%	71.1%
CCAGUGUGGCUCAGCGAG [hsa-miR-4302]	-22.9%	18.9%	28.8%
UCCGAGCCUGGGUCUCCCUCUU [hsa-miR-615-3p]	-0.788%	-6.23%	74.9%
AGAGUCGGCGACGCCGCCAGC [hsa-miR-4785]	-30.3%	25.1%	49.5%
UCAGCACCAGGAUAUUGUUGGAG [hsa-miR-3065-3p]	62.3%	-25.2%	67.2%
UAGACGUGGUGAAGGAUUGAGUG [hsa-miR-6863]	-16.5%	1.02%	47.3%
AUUGUCCCUCUCCCUUCCCAG [hsa-miR-4646-3p]	-1.47%	-0.307%	50.3%

Sequence	5+ nucleoli phenotype percent effect (MCF10A [1])	one-nucleolus phenotype percent effect (MCF10A [2])	percent viability (MCF10A [3])
GCUCAGGGAUGAUAACUGUGCUGAGA [hsa-miR-4518]	31.9%	-10.2%	55.6%
CAACAAAUCACAGUCUGCCAUA [hsa-miR-7-1-3p]	23.6%	-2.83%	98.9%
UGGGGAAGGCGUCAGUGUCGGG [hsa-miR-4725-3p]	-3%	26%	28.1%
AGAGGUUGCCCUUGGUGAAUUC [hsa-miR-377-5p]	-35.2%	36.3%	22%
AUAGCAAUUGCUCUUUUGGAA [hsa-miR-4766-3p]	-28.9%	19.4%	38.1%
AAAAGUAAUUGCAGUUUUUGC [hsa-miR-548ar-5p]	22.8%	-24.8%	134%
GGCAGGAGGGCUGUGCCAGGUUG [hsa-miR-4722-5p]	13.5%	-6.08%	60.5%
CUACCCCCCAUCCCCCUGUAG [hsa-miR-6798-3p]	-13.9%	-5.24%	72.5%
UAGGUGGCGCCGGAGGAGUCAUU [hsa-miR-6815-5p]	-6.84%	20.3%	13.2%
CCUAGUAGGUGUCCAGUAAGUGU [hsa-miR-325]	25%	-12.1%	58%
ACACAGUGCUUCAUCCACUACU [hsa-miR-3681-3p]	-3.88%	-4.5%	76.6%
AACCCGUAGAUCCGAACUUGUG [hsa-miR-100-5p]	-0.958%	9.92%	45.1%
UGGGGGCUGGAUGGGGUAGAGU [hsa-miR-6846-5p]	-0.876%	7.84%	23.9%
CCAGUUUUCCCAGGAUU [hsa-miR-4328]	62.6%	-38.7%	108%
UGGUUGACCAUAGAACAUGCGC [hsa-miR-380-5p]	-0.352%	13.4%	17.6%
UGUAGUUGUAUUGUAUUGCCAC [hsa-miR-4703-3p]	-29.5%	6.74%	40.8%
UGCGACAUUGGAAGUAGUAUCA [hsa-miR-3683]	-3.56%	-0.47%	61.1%
AAACAAACAUGGUGCACUUCUU [hsa-miR-495-3p]	-10.6%	5.47%	93.6%
